Laboratory results reported in article PMC5105068.

Target: soluble γc protein (sγc), recombinant murine (mouse)
Assay: immunoprecipitation and immunoblot, SDS-PAGE under reducing and non-reducing conditions; culture supernatant of sγc expressing 293 T cells immunoprecipitated and immunoblotted with anti-γc ectodomain antibodies; resolved with (+ DTT) or without reduction

soluble γc protein (sγc), recombinant murine (natural protein)
stoichiometry N: 2
